Assay [1] has as its target amyloid beta monomer (Homo sapiens, UniProt P05067). The assay can be described thus: saturation binding/Scatchard.
Assay [2] deals with amyloid beta oligomers (Homo sapiens, UniProt P05067). The assay can be described thus: saturation binding/Scatchard.
amyloid beta oligomers, sequence (P05067 672-713): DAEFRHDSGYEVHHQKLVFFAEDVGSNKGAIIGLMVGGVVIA

amyloid beta monomer, sequence (P05067 672-713): as above

B1: BP (VEGF-derived peptide) (protein)
chain: MTDRQTDTAPSPSYHLLPGRRRTVDAAASRGQGPEPAPGGGVEGVGARGVALKLFVQLLGCSRFGGAVVRAGEAEPSGAARSASSGREEPQPEEGEEEEEKEEERGPQWRLGARKPGSWTGEAAVCADSAPAARAPQALARASGRGGRVARRGAEESGPPHSPSRRGSASRAGPGRASETMNFLLSWVHWSLALLLYLHHAKWSQAAPMAEGGGQNHHEVVKFMDVYQRSYCHPIETLVDIFQEYPDEIEYIFKPSCVPLMRCGGCCNDEGLECVPTEESNITMQIMRIKPHQGQHIGEMSFLQHNKCECRPKKDRARQEKKSVRGKGKGQKRKRKKSRYKSWSVPCGPCSERRKHLFVQDPQTCKCSCKNTDSRCKARQLELNERTCRCDKPRR
Turning to B1, the Kd (usually the free concentration of one partner at which half of the binding sites on the other are occupied at equilibrium, for simple one-to-one binding) was 19 µM in assay [1] and 0.012 µM in assay [2].
